# Test results: article PMC6344858
# How the values were obtained:
# [1] = target: PfoI restriction endonuclease, wild type (Pseudomonas fluorescens biovar 126); assay: dynamic light scattering; PfoI-SP14 complex at various concentrations; Malvern Zetasizer uV; MW estimated from the apparent particle diameter
# [2] = target: PfoI restriction endonuclease, wild type (Pseudomonas fluorescens biovar 126); assay: SEC; analytical gel filtration on Superdex75 10/300; 10 mM Tris-HCl pH 7.5, 5 mM calcium chloride, with 150 mM NaCl ('low salt') or 300 mM KCl ('high salt'); 13.8 uM PfoI dimer with or without oligoduplex SP14-GF (1:1.2)
substance,measurement,setting,value
"PfoI restriction endonuclease, wild type (enzyme)",stoichiometry N,[1],2
same,stoichiometry N,[2],2
